The source of these data is patent US20180215829A1 (CRESCENDO BIOLOGICS, published 2018).

The target of experiment [1] is T1, recombinant human IL-17RA Fc fusion protein (R&D Systems 177-IR-100) (human, UniProt Q96F46 33-320).
T1 construct: Bought protein; not shown: Fc domain of human IgG1
T1 sequence: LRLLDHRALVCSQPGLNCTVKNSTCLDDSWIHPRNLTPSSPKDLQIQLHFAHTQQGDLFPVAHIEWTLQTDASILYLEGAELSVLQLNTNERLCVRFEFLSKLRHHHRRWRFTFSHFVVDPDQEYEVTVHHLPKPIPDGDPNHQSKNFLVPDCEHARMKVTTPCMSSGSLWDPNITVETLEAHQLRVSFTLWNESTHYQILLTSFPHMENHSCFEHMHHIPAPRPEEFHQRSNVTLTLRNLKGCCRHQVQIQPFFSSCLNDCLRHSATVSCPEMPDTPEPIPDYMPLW
The experiment is described as follows: receptor/ligand biochemical inhibition ELISA: VH competes with 1 nM IL-17A for coated IL-17RA-Fc. As for the experimental part: (§1) VH, both purified and crude periplasmic extracts, were also tested for their ability to inhibit the interaction of IL-17A with recombinant IL-17RA-Fc. […] Following washing of excess coating antigen, as described above, the wells of the plate were incubated with 3% Marvel/PBS to block non-specific protein interactions. VH preparations, crude periplasmic extracts or purified VH, or suitable controls, were prepared with 1 nM recombinant IL-17A (Peprotech, cat# AF-200-17) in 3% skimmed milk powder/PBS solution in polypropylene plates or tubes. The mixture was then transferred to the assay plate and incubated for 1 hour at room temperature. Excess protein was removed by washing and bound IL-17A was detected by incubation with biotinylated anti-IL-17A Mab (R & D Systems, cat BAF317) followed by the addition of neutravidin-HRP (Pierce, cat#31030) and TMB substrate (Sigma, cat# T0440). The TMB reaction was stopped by addition of 0.5M H₂SO₄ and absorbances were measured at 450 nm in a plate reader.

Experiment [2] has as its target T1, recombinant human IL-17RA Fc fusion …. The experiment is described as follows: IL-17RA ligand inhibition ELISA (FIG. 10A): VH competes with IL-17A for coated IL-17RA-Fc. The procedure: as §1
Experiment [3] shares this target. Put plainly: receptor/ligand biochemical inhibition ELISA: VH competes with 1 nM IL-17A for coated IL-17RA-Fc. The procedure: as §1
This is another data set of the same source.

Experiment [4] has the same target. The experiment is described as follows: BIAcore T200 single-cycle kinetics, IL-17RA-Fc captured on protein G chip, VH as analyte. The procedure:
(§2) Binding kinetics of anti-IL-17RA VH antibodies were measured on a BIAcore® T200 instrument. For IL-17RA, first a protein G chip was prepared by diluting protein G to 20 ug/ml in acetate buffer, pH 4 (BIAcore®, cat# BR-100-49) and then coupled 1200 RU to a CM5 Series S chip using amine coupling chemistry. This surface was then used to capture IL-17RA Fc fusion protein from solution: IL-17RA at 10 ug/ml in HBS injected for 10 seconds at 30 ul/min flow rate would capture approximately 100-150 RU of IL-17RA onto the protein G surface.
(§3) Binding kinetics of anti-IL-17RA VH antibodies were determined by single-cycle kinetics. VH antibodies were prepared in dilution series (typically 1:3 dilution series starting with 100 nM VH at the highest concentration), and then injected over the antigen coated surfaces and also a blank surface, starting with the lowest concentration of VH and then working progressively up to the highest concentration. VH binding kinetics were then determined from the (blank subtracted) sensorgram traces using 1:1 binding models and BIAevaluation software.
For orientation: In SPR one partner is held on a chip, and binding of the other changes the refractive index at the surface.

Experiment [5] concerns the target T2, human IL-17RA on HT1080 cells (human, UniProt Q96F46 33-866).
T2 sequence: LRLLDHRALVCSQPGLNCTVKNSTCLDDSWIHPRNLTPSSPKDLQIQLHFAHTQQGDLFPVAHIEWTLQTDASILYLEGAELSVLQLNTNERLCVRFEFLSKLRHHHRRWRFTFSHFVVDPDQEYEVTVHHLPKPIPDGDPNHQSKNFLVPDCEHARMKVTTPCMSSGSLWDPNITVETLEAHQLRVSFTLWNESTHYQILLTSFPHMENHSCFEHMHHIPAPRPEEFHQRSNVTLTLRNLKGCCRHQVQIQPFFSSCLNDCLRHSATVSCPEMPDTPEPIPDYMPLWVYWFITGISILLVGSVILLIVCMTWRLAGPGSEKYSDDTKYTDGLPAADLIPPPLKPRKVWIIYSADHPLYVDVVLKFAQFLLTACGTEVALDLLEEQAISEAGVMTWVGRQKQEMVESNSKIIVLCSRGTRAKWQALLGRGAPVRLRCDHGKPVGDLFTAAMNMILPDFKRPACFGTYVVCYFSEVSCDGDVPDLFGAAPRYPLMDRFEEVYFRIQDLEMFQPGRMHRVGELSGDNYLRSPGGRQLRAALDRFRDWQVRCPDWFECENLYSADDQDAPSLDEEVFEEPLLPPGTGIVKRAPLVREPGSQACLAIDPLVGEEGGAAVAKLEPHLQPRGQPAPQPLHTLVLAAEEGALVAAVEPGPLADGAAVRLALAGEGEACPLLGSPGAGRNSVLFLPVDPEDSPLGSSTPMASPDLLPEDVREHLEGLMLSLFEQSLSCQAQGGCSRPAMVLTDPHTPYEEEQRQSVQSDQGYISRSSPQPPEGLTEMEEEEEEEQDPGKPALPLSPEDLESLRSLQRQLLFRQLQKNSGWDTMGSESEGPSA
The experiment is described as follows: cell-based or functional assay.

Experiment [6] deals with T1, recombinant human IL-17RA Fc fusion …. Put plainly: BIAcore T200 single-cycle kinetics, IL-17RA-Fc captured on protein G chip, VH as analyte. The procedure: as §2, §3
This is another data set of the same source.

Experiment [7] deals with T2, human IL-17RA on HT1080 cells. The experiment is described as follows: cell-based or functional assay. The source holds these as a separate data set.

Where two headings read alike, the source gives them in different places.

B1: VH clone 2.1 (VHH)
VHH: QVQLVQSGAEVKKPGASVKVSCKASGYPFTSYDINWVRQATGQSLEWMGWMNPNSGDTVYAQKFQGRVTMTRNTSISTAYMELSSLRSEDTAVYFCARGRRDDWKNNYWGQGTLVTVSS
notes: Human VH single domain antibody, no light chain; Parent clone of family 2; also called VH 2.1
Usually IC50 stands for the midpoint of a concentration-inhibition curve. Usually Kd stands for the constant that tells how readily two partners part at equilibrium. Broadly, the koff is a measure of how fast the partners let go of each other. As a reminder, the kon is a measure of how fast the partners come together. In the case of B1, the IC50 in experiment [1] stood at 3.7 nM; in experiment [2], 4 nM; in experiment [3], 3.7 nM. The Kd in experiment [4] and in experiment [6] was 7 nM throughout. Also, the koff in experiment [4] was determined as 0.00263 s⁻¹. Besides, the kon in experiment [4] came to 368000 M⁻¹ s⁻¹. Further, the “Cell assay IC50” value in experiment [5] and in experiment [7] was 280 nM each time.
